# Laboratory results taken from article PMC8196007, “HSP-90/kinase complexes are stabilized by the large PPIase FKB-6” (Scientific Reports, 2021).
# B1: nematode CDC-37 (natural protein, C. elegans, UniProt O02108 1-370, looked up)
# chain: MPIDYSKWKDIEVSDDEDDTHPNIDTPSLFRWRHQARLERMAEKKMEQEKIDKEKGTTSKKMEELEKKLAAADVTDKSDIQKQIDEVKAQEEAWRKKEAELEEKERLEPWNVDTIGHEAFSTSRINKITEKKPQAPKTDEEDTHAMSTFFETHESLLEKMAVLKNGAKSTELFLAEHPHMASEYTANWLTIEALNAAIDFNEEKMKTMAEQCIIIQYLLELSKSLNAVATNTTVQKQFFKKFEAAEPVYMKHYQDEVKAFEDRLRTRAQTKRDAAMEEAEAEEKAERMKSAPGGIDPQEVFEQLPEEMRKCFEAHDIEALKGVAQKMDEEVFKYHFDRCIASGLWVPGKADDDDDDEEAAPAEEEPTTSS
# notes: CDC-37, C. elegans (nematode) Hsp90 cochaperone; source: E. coli BL21 (DE3) cod+, purified (HisTrap, gel filtration)
# B2: FKB-6 (full-length) (natural protein, C. elegans, UniProt O45418 1-431, looked up)
# chain: MSGEKIDITPKKDGGVLKLIKKEGQGVVKPTTGTTVKVHYVGTLENGTKFDSSRDRGDQFSFNLGRGNVIKGWDLGVATMTKGEVAEFTIRSDYGYGDAGSPPKIPGGATLIFEVELFEWSAEDISPDRDGTILRTIIVEGSKNSFPNDTSKVLAHCVGTYQGTEFYNREVNFHIGEGSEEGLPEGVERALRRFQLGEKSKIEIRGHKYTYGNSPPAGSNIPVNATLEFTIFLKEFEKVPATWEMTAEEKLDAAKQAKDRGTMYLQKGNLKLAYNKYKRAEEVLEYEKSTDPEKMAERETILNGAYLNLSLVCSKQNEQLECIKWCDKVLETKPGNVKALYRKATALLTMNEVRDAMKLFEKIVEVEPENKAAAQQIIVCRNTIREQNERDKKRFKNLFAKISTEEDKPTNTVEDEDEIVASTSGSSTSNA
# notes: FKB-6, C. elegans large PPIase, homolog of human Fkbp51/Fkbp52; also called large PPIase FKB-6; source: E. coli BL21 (DE3) cod+, purified (HisTrap, gel filtration)
# Tests used:
# FKB-6 (full-length) = biological target: B2; experiment: native MS; LILBID-MS of the BS3-crosslinked sample and of non-crosslinked mixtures, sB-Raf:CDC-37:FKB-6:HSP-90 = 1:1:1:1 or as indicated; 25 mM Tris, 20 mM KCl, pH 7.5; settings: both partners purified
# nematode HSP-90 = biological target: T1, nematode HSP-90 (C. elegans, UniProt Q18688 1-702); experiment: as above; settings: both partners purified
# T1 construct: HSP-90, C. elegans (nematode) Hsp90; also called HSP-90 dimer; source: E. coli BL21 (DE3) cod+, purified (HisTrap, gel filtration)
Binder,binding result (FKB-6 (full-length)),binding result (nematode HSP-90)
B1,binds,binds
B2,,binds
